{
  "source": "patent US20240327884A1",
  "about": "“ATP-PRT VARIANT WITH REDUCED FEEDBACK INHIBITION BY HISTIDINE, AND HISTIDINE-PRODUCING STRAIN EXPRESSING SAME” (priority 2020, published 2024)",
  "molecules": {"B1": {"name": "hisG_SDM7: ATP-PRT variant containing H232T, R250H, T252L, E271K and S288P mutations (protein)", "chain": "MTDNTRLRIAMQKSGRLSDDSRELLARCGIKINLHTQRLIAMAENMPIDILRVRDDDIPGLVMDGVVDLGIIGENVLEEELLNRRAQGEDPRYFTLRRLDFGGCRLSLATPVDEAWDGPLSLNGKRIATSYPHLLKRYLDQKGISFKSCLLNGSVEVAPRAGLADAICDLVSTGATLEANGLREVEVIYRSKACLIQRDGEMEESKQQLIDKLLTRIQGVIQARESKYIMMTAPTERLDEVIALLPGAEHPLILPLAGDQQRVAMHMVSSKTLFWETMEKLKALGASPILVLPIEKMME", "modifications": "hisG_SDM7", "notes": "ATP-PRT variant containing H232T, R250H, T252L, E271K and S288P mutations"}},
  "target": "T1, ATP phosphoribosyltransferase (Escherichia coli, UniProt P60757, E271K/H232T/R250H/S288P/T252L)",
  "T1 construct": "made in house; supernatant of sonicated cells",
  "format": "biochemical, E. coli",
  "settings": "comparison of hisG_WT, hisG_SDM4, hisG_SDM7",
  "protocol": "Each strain was cultured under conditions of 30° C. and 180 rpm. When the OD600 reached 0.6, ATP-PRT expression was induced with 1 mM IPTG (final concentration) and additional culture was performed for about 4 hours. The cells obtained after culturing were sonicated and centrifuged. The obtained supernatants were used for evaluation of ATP phosphoribosyltransferase activity. […] The protein in each supernatant was quantified to match the concentration, and the enzyme activity was measured after mixing the reactants according to the reaction composition shown in Table 8 below.\nThe activity was measured at 30° C. at a UV wavelength of 290 nm at 2 minute intervals for 30 minutes.",
  "data": [
    {"molecule": "B1", "values": [
      {"measurement": "Resistance to activity inhibition by histidine", "value": "best resistance"}
    ]}
  ]
}
